Test results: publication PMC8809517, “Cofactor-independent RNA editing by a synthetic S-type PPR protein”
Residue numbers refer to the chain shown, from its start.

T1: GFP-9S library array, motif 4 ND N98H;D124Q (synthetic construct, N98H;D124Q)
T1 chain: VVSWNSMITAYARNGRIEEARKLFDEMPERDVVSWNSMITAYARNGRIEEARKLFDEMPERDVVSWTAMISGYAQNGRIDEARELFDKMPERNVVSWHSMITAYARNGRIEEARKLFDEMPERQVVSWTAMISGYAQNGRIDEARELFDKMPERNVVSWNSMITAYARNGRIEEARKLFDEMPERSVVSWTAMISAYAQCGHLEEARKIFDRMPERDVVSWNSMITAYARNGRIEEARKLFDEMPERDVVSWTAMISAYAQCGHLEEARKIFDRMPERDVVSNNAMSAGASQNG

T2: GFP-9S library array, motif 4 ND N98C;D124Q (synthetic construct, N98C;D124Q)
T2 chain: T1 chain with H98C

T3: GFP-9S library array, motif 4 ND N98R;D124T (synthetic construct, N98R;D124T)
T3 chain: T1 chain with H98R, Q124T

T4: GFP-9S library array, motif 4 ND N98Y;D124C (synthetic construct, N98Y;D124C)
T4 chain: T1 chain with H98Y, Q124C

T5: GFP-9S library array, motif 4 ND N98T;D124L (synthetic construct, N98T;D124L)
T5 chain: T1 chain with H98T, Q124L

B1: IR-rpoA-A (ssRNA)
RNA: AUUAAACGUGA
B2: Cy5-rpoA-G (ssRNA)
RNA: AUUAGACGUGA
B3: IR-rpoA-U (ssRNA)
RNA: AUUAUACGUGA
B4: Cy5-rpoA (ssRNA)
RNA: AUUACACGUGA

Columns and labels:
Assay in all cases: high-throughput RNA pulldown from lysate on Ni-NTA beads; HRP: 50 mM Tris pH 8, 150 mM NaCl, 1 mM beta-mercaptoethanol, 50 ug/ml BSA, 3 ug/ml yeast RNA, 0.5% heparin; ITC and FP: Tris pH 8, 200 mM KCl, 5% glycerol; MST: 50 mM Tris pH 8, 200 mM NaCl, 1 mM DTT, BSA, heparin, 0.05% Tween 20
Conditions in all cases: tags: N-terminal His-eGFP
[1] = biological target: T1, GFP-9S library array, motif 4 ND …
[2] = biological target: T2, GFP-9S library array, motif 4 ND …
[3] = biological target: T3, GFP-9S library array, motif 4 ND …
[4] = biological target: T4, GFP-9S library array, motif 4 ND …
[5] = biological target: T5, GFP-9S library array, motif 4 ND …

Binder	Kd ([1]; label: 5' IRDye 800CW)	Kd ([2]; label: 5' IRDye 800CW)	Kd ([3]; label: 5' IRDye 800CW)	Kd ([4]; label: 5' IRDye 800CW)	Kd ([5]; label: 5' IRDye 800CW)	Kd ([1]; label: 5' Cy5)	Kd ([2]; label: 5' Cy5)	Kd ([3]; label: 5' Cy5)	Kd ([4]; label: 5' Cy5)	Kd ([5]; label: 5' Cy5)
B1	82.6 nM	177 nM	173 nM	211 nM	169 nM					
B2						60.8 nM	150 nM	98.5 nM	115 nM	120 nM
B3	31.4 nM	143 nM	85.9 nM	271 nM	174 nM					
B4						68.7 nM	127 nM	74.7 nM	126 nM	120 nM
